To fix the notation:
T1: mouse MCAM expressed on transfected CHO cells (mouse, UniProt Q8R2Y2 24-648)
T1 construct: whole, on cells; also called murine MCAM
T1 sequence (looked up): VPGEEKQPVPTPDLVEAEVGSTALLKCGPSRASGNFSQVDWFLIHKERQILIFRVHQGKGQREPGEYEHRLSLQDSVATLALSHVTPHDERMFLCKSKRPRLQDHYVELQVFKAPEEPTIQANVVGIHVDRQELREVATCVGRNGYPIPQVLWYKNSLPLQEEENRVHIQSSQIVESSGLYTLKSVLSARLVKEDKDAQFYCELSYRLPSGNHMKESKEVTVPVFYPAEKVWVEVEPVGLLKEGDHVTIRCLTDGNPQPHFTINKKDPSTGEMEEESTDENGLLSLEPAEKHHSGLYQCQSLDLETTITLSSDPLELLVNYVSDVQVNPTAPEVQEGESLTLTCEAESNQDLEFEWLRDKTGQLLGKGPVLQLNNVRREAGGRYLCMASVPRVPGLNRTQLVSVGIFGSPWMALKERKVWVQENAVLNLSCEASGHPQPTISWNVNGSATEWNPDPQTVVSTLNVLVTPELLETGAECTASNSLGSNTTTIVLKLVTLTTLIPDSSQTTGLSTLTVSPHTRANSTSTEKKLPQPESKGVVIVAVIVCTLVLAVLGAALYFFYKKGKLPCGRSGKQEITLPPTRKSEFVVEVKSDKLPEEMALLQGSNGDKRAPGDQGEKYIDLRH

T2: Murine MCAM domain 1 (Ig1) with human IgG Fc tag (mouse, UniProt Q8R2Y2 24-131, limits assumed)
T2 construct: domain: domain 1 (Ig1); also called MCAM Fc domain 1; Fc domain 1 alone; not shown: human IgG Fc tag
T2 sequence (looked up): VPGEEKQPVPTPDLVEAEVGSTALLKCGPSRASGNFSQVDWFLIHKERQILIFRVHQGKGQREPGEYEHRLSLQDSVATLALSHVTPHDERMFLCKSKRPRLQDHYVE

T3: human MCAM (melanoma cell adhesion molecule) expressed on transfected CHO cells (human, UniProt P43121 24-646)
T3 construct: also called hMCAM; CD146
T3 chain: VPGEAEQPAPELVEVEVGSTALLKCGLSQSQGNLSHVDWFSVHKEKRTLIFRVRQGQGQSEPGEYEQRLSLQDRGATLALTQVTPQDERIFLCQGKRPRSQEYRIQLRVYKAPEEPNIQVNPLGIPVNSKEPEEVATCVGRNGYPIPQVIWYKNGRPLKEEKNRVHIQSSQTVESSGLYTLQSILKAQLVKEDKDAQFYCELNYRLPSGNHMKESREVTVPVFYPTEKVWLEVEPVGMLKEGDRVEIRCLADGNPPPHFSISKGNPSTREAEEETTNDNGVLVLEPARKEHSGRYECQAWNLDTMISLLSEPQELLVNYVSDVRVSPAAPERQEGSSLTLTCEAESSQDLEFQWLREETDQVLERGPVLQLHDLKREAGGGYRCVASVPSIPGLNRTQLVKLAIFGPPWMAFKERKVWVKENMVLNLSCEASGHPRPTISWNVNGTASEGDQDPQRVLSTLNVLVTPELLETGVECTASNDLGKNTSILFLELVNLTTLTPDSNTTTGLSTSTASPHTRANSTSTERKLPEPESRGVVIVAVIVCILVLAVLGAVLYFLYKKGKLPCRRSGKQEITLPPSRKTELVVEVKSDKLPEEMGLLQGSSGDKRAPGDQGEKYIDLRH

T4: Ig2 domain (mouse, UniProt Q8R2Y2)
T4 construct: isolated domain 2; also called Murine MCAM domain 2 (Ig2) with human IgG Fc tag
T4 sequence (Fc fusion chain, looked up): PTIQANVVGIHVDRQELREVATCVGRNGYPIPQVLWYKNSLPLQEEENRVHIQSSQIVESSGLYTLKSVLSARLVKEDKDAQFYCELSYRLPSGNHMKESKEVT

T5: murine MCAM-Fc fusion protein (mouse, UniProt Q8R2Y2 24-563)
T5 construct: extracellular domain; produced in CHO cells; also called mouse MCAM-Fc; mouse MCAMhFc; not shown: fused to human IgG
T5 sequence (looked up): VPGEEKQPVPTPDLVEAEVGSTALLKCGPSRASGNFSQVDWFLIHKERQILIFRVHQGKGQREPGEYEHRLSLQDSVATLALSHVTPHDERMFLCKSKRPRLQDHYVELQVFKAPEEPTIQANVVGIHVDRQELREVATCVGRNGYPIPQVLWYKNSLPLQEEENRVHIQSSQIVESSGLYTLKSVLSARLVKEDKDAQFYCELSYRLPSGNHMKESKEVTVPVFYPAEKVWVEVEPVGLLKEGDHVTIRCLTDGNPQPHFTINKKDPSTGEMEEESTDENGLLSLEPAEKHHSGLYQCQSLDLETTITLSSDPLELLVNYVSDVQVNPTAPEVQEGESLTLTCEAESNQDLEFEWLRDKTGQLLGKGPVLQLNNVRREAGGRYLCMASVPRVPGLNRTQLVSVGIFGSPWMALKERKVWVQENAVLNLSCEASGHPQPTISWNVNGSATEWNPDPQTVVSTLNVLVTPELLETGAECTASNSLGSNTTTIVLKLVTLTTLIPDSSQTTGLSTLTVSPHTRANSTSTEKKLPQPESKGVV

B1: anti-MCAM monoclonal antibody clone 15 (antibody, V domains shown)
VH: EVRLVESGGGLVQPGKSMKLSCVASGFKFSNYYMSWVRQAPAKGLEWVASISDGGGDTFCRDLVKGRFTISRDNAKSTLYLQMDSLRPEDTATYYCARRGAAMGGVMDAWGQGTSVTVSS
VL: DIVMTQSPSSLAVSAGETVSIHCKSSQSLLYSGTQKNYLAWFQQKPGQSPKLLIFWASTRQSGVPDRFIGRGSGTDFTLTISGVQAEDLAIYYCQQYYDTLTDTFGAGTKLELKR
notes: rat monoclonal raised against murine MCAM-Fc; also called Anti-MCAM Clone 15; anti-mouse MCAM clone 15
B2: Recombinant human laminin-α4 (R&D systems) (ligand, UniProt Q16363-2 826-1816, looked up)
chain: QVSMMFDGQSAVEVHSRTSMDDLKAFTSLSLYMKPPVKRPELTETADQFILYLGSKNAKKEYMGLAIKNDNLVYVYNLGTKDVEIPLDSKPVSSWPAYFSIVKIERVGKHGKVFLTVPSLSSTAEEKFIKKGEFSGDDSLLDLDPEDTVFYVGGVPSNFKLPTSLNLPGFVGCLELATLNNDVISLYNFKHIYNMDPSTSVPCARDKLAFTQSRAASYFFDGSGYAVVRDITRRGKFGQVTRFDIEVRTPADNGLILLMVNGSMFFRLEMRNGYLHVFYDFGFSGGPVHLEDTLKKAQINDAKYHEISIIYHNDKKMILVVDRRHVKSMDNEKMKIPFTDIYIGGAPPEILQSRALRAHLPLDINFRGCMKGFQFQKKDFNLLEQTETLGVGYGCPEDSLISRRAYFNGQSFIASIQKISFFDGFEGGFNFRTLQPNGLLFYYASGSDVFSISLDNGTVIMDVKGIKVQSVDKQYNDGLSHFVISSVSPTRYELIVDKSRVGSKNPTKGKIEQTQASEKKFYFGGSPISAQYANFTGCISNAYFTRVDRDVEVEDFQRYTEKVHTSLYECPIESSPLFLLHKKGKNLSKPKASQNKKGGKSKDAPSWDPVALKLPERNTPRNSHCHLSNSPRAIEHAYQYGGTANSRQEFEHLKGDFGAKSQFSIRLRTRSSHGMIFYVSDQEENDFMTLFLAHGRLVYMFNVGHKKLKIRSQEKYNDGLWHDVIFIRERSSGRLVIDGLRVLEESLPPTEATWKIKGPIYLGGVAPGKAVKNVQINSIYSFSGCLSNLQLNGASITSASQTFSVTPCFEGPMETGTYFSTEGGYVVLDESFNIGLKFEIAFEVRPRSSSGTLVHGHSVNGEYLNVHMKNGQVIVKVNNGIRDFSTSVTPKQSLCDGRWHRITVIRDSNVVQLDVDSEVNHVVGPLNPKPIDHREPVFVGGVPESLLTPRLAPSKPFTGCIRHFVIDGHPVSFSKAALVSGAVSINSCPAA
notes: also called laminin α-4 chain
B3: human MCAM domain 1 (amino acids 19-129), Fc-tagged (Fc fusion, not shown: a dimerising Fc or GST)
chain: PRVAGVPGEAEQPAPELVEVEVGSTALLKCGLSQSQGNLSHVDWFSVHKEKRTLIFRVRQGQGQSEPGEYEQRLSLQDRGATLALTQVTPQDERIFLCQGKRPRSQEYRIQ
notes: also called MCAM Fc domain 1

Assay [1] concerns the target T1, mouse MCAM expressed on transfected CHO …. Put plainly: flow cytometry, mouse MCAM transfected cells mixed with CFSE-labelled untransfected cells. Here is the method:
For the generation of antibodies capable of binding to murine MCAM, MCAM-Fc was generated by fusing the extracellular domain of murine MCAM to human IgG and produced in CHO cells using standard techniques. Lou/M rats were immunized with 100 μg of MCAM-Fc protein in CFA (1:1 volume). Rats were boosted two times at two week intervals with MCAM-Fc protein in incomplete Freund's adjuvant (IFA) (1:1 volume). Hybridomas were generated from immunized rats using standard protocols and clones were selected by Clonepix. CHO cells were transfected with the full length murine MCAM gene and selected for stable expression using neomycin and standard techniques. Parental CHO cells (MCAM negative) were fluorescently labeled with carboxyfluorescein succinimidyl ester (CFSE) using standard techniques and mixed at a 1:1 ratio with unlabeled MCAM transfected CHO cells. Hybridoma supernatants were incubated with this mixture of cells for 30 minutes and binding of potential MCAM specific antibodies was detected with a fluorescently labeled anti-rat secondary antibody (Jackson Immuno) by flow cytometry.

For assay [2], the target named is T2, Murine MCAM domain 1 (Ig1) with human …. Description: ForteBio Octet Red, domain-hFc on anti-human IgG Fc sensor. The text has this:
(§1) The following protocol was used: ForteBio Domain Mapping Protocol. ForteBio anti-human IgG Fc biosensors were used to immobilize various mouse MCAMhFc domains including full length mouse MCAMhFc protein on to biosensor surface. These sensors were dipped into either clone 15 or 17 MCAM specific antibody for detection of binding to these domains or full length protein. After loading these samples into a black 96 well plate, the Octet Red was programmed as follows: 60 seconds for baseline #1; 180 seconds for loading various domains; 60 seconds for baseline #2; 180 seconds for association of antibody to domain; and 240 seconds for dissociation of antibody from domain.
(§2) 1. Mouse MCAMhFc final concentration @ 5 ug/ml [0466] 2. Antibody clone 15 or 17 @ 5 ug/ml [0467] 3. ForteBio anti-human IgG Fc Capture (AHC) biosensors for kinetics experiments, cat#18-5060 [0468] 4. […] 5. ForteBio Octet Red machine [0470] 6. Fresh tissue culture medium, DMEM with 20% FCS, was used as buffer for dilution
(Biolayer interferometry detects binding as a change in optical thickness at a sensor tip.)

The target in assay [3] is T3, human MCAM (melanoma cell adhesion …). Put plainly: flow cytometry, human MCAM transfected cells mixed with CFSE-labelled untransfected cells.
For assay [4], the target named is T4, Ig2 domain. Description: ForteBio Octet Red, anti-human IgG Fc (AHC) biosensors loaded with mouse MCAM-hFc proteins (5 ug/ml), dipped into antibody (5 ug/ml) or SP2 media.
Excerpt: as §1, §2
(§3) For FIGS. 10A-B, clones 15 and 17 were tested against the following protein samples (all have human IgG Fc tag): Murine MCAM; Human Fc full length protein; Murine MCAM domain 1 (Ig1); Murine MCAM domain 2 (Ig2); and Murine MCAM domain 1 and 2 (Ig1-2A).

The target of assay [5] is T5, murine MCAM-Fc fusion protein. The assay is described as above.
Excerpt: as §1, §2, §3

Assay [6] concerns the target T6, recombinant human IgG1 Fc (R&D systems) (human, UniProt P01857-1 100-330 = IgG part).
T6 construct: domain: Fc; negative control surface; also called hIgG1-Fc
Put plainly: SPR, Biacore T200. For orientation: In SPR one partner is held on a chip, and binding of the other changes the refractive index at the surface.

Assay [7] addresses T7, recombinant human laminin 511 (Biolamina) (human, UniProt O15230 36-3695; P07942 22-1786; P11047 34-1609).
T7 construct: negative control; also called laminin 10 (α5β1γ1)
Description: SPR, Biacore T200.

The target in assay [8] is B2. Put plainly: SPR, Biacore T200.

With B1, the binding result in assay [1] was “binds”; in assay [2] it was “no binding (tested: 5 ug/ml)”; in assay [3] it was “no binding”; in assay [4], “no binding (tested: 5 ug/ml)”; in assay [5] it was “binds”.

B2: the binding result in assay [6] is reported as “no binding (tested: 5-175 nM)”.

On to B3, for which the binding result in assay [7] and in assay [8] was “no binding (tested: 5-175 nM)” each time.

Values taken from US20150239980A1 (NEOTOPE BOSCIENCES, published 2015).
